Measurements from paper PMC11021452, “Exposing the molecular heterogeneity of glycosylated biotherapeutics” (Nature Communications, 2024).

B1: IL22-Fc fusion biotherapeutic (UTTR1147A) [modified: N-linked glycans with sialic acid; 8 N-linked glycosylation sites in the dimer (N21, N35, N64, N143 on each chain); N-linked glycans with sialic acid; 8 N-linked … (parent)
chain 1: APISSHCRLDKSNFQQPYITNRTFMLAKEASLADNNTDVRLIGEKLFHGVSMSERCYLMKQVLNFTLEEVLFPQSDRFQPYMQEVVPFLARLSNRLSTCHIEGDDLHIQRNVQKLKDTVKKLGESGEIKAIGELDLLFMSLRNACI
chain 2: HAPEDPSDLLQHVKFQSSNFENILTWDSGPEGTPDTVYSIEYKTYGERDWVAKKGCQRITRKSCNLTVETGNLTELYYARVTAVSAGGRSATKMTDRFSSLQHTTLKPPDVTCISKVRSIQMIVHPTPTPIRAGDGHRLTLEDIFHDLFYHLELQVNRTYQMHLGGKQREYEFFGLTPDTEFLGTIMICVPTWAKESAPYMCRVKTLPDRTWT

Variants of: B1
Test: relative potency assay (method not named for this panel; measured in duplicate)
Conditions: with IL-22 RA1 extracellular domain (ECD)
In the case of chain 1 APISSHCRLDKSNFQQPYITNRTFMLAKEASLADNNTDVRLIGEKLFHGVSMSERCYLMKQVLNFTLEEVLFPQSDRFQPYMQEVVPFLARLSNRLSTCHIEGDDLHIQRNVQKLKDTVKKLGESGEIKAIGELDLLFMSLRQACI [chain 1 N143Q], the ratio to parent is reported as 0.83. chain 1 APISSHCRLDKSNFQQPYITNRTFMLAKEASLADQNTDVRLIGEKLFHGVSMSERCYLMKQVLNFTLEEVLFPQSDRFQPYMQEVVPFLARLSNRLSTCHIEGDDLHIQRNVQKLKDTVKKLGESGEIKAIGELDLLFMSLRNACI [chain 1 N35Q] gave a ratio to parent of 1.54. Work on chain 1 APISSHCRLDKSNFQQPYITNRTFMLAKEASLADNNTDVRLIGEKLFHGVSMSERCYLMKQVLQFTLEEVLFPQSDRFQPYMQEVVPFLARLSNRLSTCHIEGDDLHIQRNVQKLKDTVKKLGESGEIKAIGELDLLFMSLRNACI [chain 1 N64Q] yielded a ratio to parent of 0.64.
